Experimental data from PMC7780238, “Structures of ISC th4 transpososomes reveal the role of asymmetry in copy‐out/paste‐in DNA transposition”.
One block for each molecule: values may come before it.

Key:
[1] = target: ISCth4 transposase (TnpA) (Clostridium thermocellum (ATCC 27405)); assay: AUC; sedimentation velocity, TnpA (0.5 or 5 uM) with molar excess of TIR DNA oligonucleotides (R-TIR26 at 4:1 DNA:TnpA; R35(j6)L35 or R35r41 with increasing DNA), 20 C, 10 mM HEPES pH 7.5, 100 mM, 0.3 mM TCEP
[2] = target: ISCth4 transposase (TnpA) (Clostridium thermocellum (ATCC 27405)); assay: AUC; sedimentation velocity, TnpA alone at 0.5-2 uM, 20 C, 50,000 RPM, 10 mM HEPES pH 7.5, 100 mM, 0.3 mM TCEP; monomer to dimer
[3] = target: T1, ISCth4 transposase (TnpA) (Clostridium thermocellum ATCC 27405, UniProt A3DBR0 1-407); assay: SV AUC; 5 uM TnpA; 7.9 S, 138 kDa dimer:1 DNA, plus ~12 S at DNA:TnpA 0.25:1; SEC: 10 mM HEPES pH 7.5, 100 mM NaCl, 0.3 mM TCEP, 4 C. Crystals: PCC 25 mM HEPES pH 7.5, 150 mM NaCl, 2 mM TCEP, 20 C; PRC/STC1 10 mM HEPES pH 7.5, 100 mM NaCl; settings: protein: recombinant; tags: Trx-His-TEV fusion removed by TEV; chain copies: 2; label: 5'FAM on strand 1 in the labeled version; blunt
T1 sequence: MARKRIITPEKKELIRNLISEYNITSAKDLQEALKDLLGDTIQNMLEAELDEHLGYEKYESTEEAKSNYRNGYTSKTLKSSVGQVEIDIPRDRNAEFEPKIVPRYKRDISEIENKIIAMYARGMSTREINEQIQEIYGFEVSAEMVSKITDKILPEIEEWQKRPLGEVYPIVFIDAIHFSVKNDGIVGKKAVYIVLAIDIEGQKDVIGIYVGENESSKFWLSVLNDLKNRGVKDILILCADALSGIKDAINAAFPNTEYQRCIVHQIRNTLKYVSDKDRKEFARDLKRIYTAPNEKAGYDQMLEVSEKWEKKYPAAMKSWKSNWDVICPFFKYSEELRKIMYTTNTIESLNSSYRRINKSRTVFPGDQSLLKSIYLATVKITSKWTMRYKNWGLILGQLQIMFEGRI

[4] = target: T1, ISCth4 transposase (TnpA); assay: X-ray crystallography; PCC; TnpA dimer on one DNA, no metal in active site; 3.5 A native; SEC: 10 mM HEPES pH 7.5, 100 mM NaCl, 0.3 mM TCEP, 4 C. Crystals: PCC 25 mM HEPES pH 7.5, 150 mM NaCl, 2 mM TCEP, 20 C; PRC/STC1 10 mM HEPES pH 7.5, 100 mM NaCl; settings: protein: recombinant; tags: Trx-His-TEV fusion removed by TEV; chain copies: 2; blunt
[5] = target: T1, ISCth4 transposase (TnpA); assay: SEC; 40 uM TnpA; ~450 kDa, octamer with 4 TIRs; behaves like R-TIR; SEC: 10 mM HEPES pH 7.5, 100 mM NaCl, 0.3 mM TCEP, 4 C. Crystals: PCC 25 mM HEPES pH 7.5, 150 mM NaCl, 2 mM TCEP, 20 C; PRC/STC1 10 mM HEPES pH 7.5, 100 mM NaCl; settings: protein: recombinant; tags: Trx-His-TEV fusion removed by TEV; chain copies: 2; blunt
[6] = target: T1, ISCth4 transposase (TnpA); assay: SV AUC; 5 uM TnpA; ~7.9 S, plus ~12 S at DNA:TnpA 0.25:1; SEC: 10 mM HEPES pH 7.5, 100 mM NaCl, 0.3 mM TCEP, 4 C. Crystals: PCC 25 mM HEPES pH 7.5, 150 mM NaCl, 2 mM TCEP, 20 C; PRC/STC1 10 mM HEPES pH 7.5, 100 mM NaCl; settings: protein: recombinant; tags: Trx-His-TEV fusion removed by TEV; chain copies: 2; blunt
[7] = target: T1, ISCth4 transposase (TnpA); assay: X-ray crystallography; STC1; TnpA dimer on one DNA; ZnCl2 in drop; SEC: 10 mM HEPES pH 7.5, 100 mM NaCl, 0.3 mM TCEP, 4 C. Crystals: PCC 25 mM HEPES pH 7.5, 150 mM NaCl, 2 mM TCEP, 20 C; PRC/STC1 10 mM HEPES pH 7.5, 100 mM NaCl; settings: protein: recombinant; tags: Trx-His-TEV fusion removed by TEV; chain copies: 2; 3 strands; blunt outer ends; 1-nt gap between S68 and S66
[8] = target: T1, ISCth4 transposase (TnpA); assay: X-ray crystallography; PRC; TnpA dimer on one DNA; 10 mM CaCl2 in precipitant; SEC: 10 mM HEPES pH 7.5, 100 mM NaCl, 0.3 mM TCEP, 4 C. Crystals: PCC 25 mM HEPES pH 7.5, 150 mM NaCl, 2 mM TCEP, 20 C; PRC/STC1 10 mM HEPES pH 7.5, 100 mM NaCl; settings: protein: recombinant; tags: Trx-His-TEV fusion removed by TEV; chain copies: 2; blunt

stoichiometry N [1]: 2
stoichiometry N [2]: 2
Molecule: ISCth4 transposase (TnpA) (enzyme)

B1: R35(j6)L35 (dsDNA)
DNA 1: GCACTGGATGTTTACACAAAAATATTTACACTGCCTTTTTTGAGATTGTAAAATATTTTATGTAAACAGTGCACTG
DNA 2: CAGTGCACTGTTTACATAAAATATTTTACAATCTCAAAAAAGGCAGTGTAAATATTTTTGTGTAAACATCCAGTGC
binding result [3]: binds

B2: R-TIR26 (dsDNA)
DNA 1: GGCAGTGTAAATATTTTTGTGTAAAC
DNA 2: GTTTACACAAAAATATTTACACTGCC
binding result [4]: binds

B3: L-TIR26 (dsDNA)
DNA 1: GAGATTGTAAAATATTTTATGTAAAC
DNA 2: GTTTACATAAAATATTTTACAATCTC
binding result [5]: binds

B4: R35r41 (dsDNA)
DNA 1: GCACTGGATGTTTACACAAAAATATTTACACTGCCTTTTTTTACCTAGTCATCAATGCCTACGTACGTAACGTTAC
DNA 2: GTAACGTTACGTACGTAGGCATTGATGACTAGGTAAAAAAAGGCAGTGTAAATATTTTTGTGTAAACATCCAGTGC
binding result [6]: binds

B5: R26(j6)L15-5'rec (dsDNA)
DNA 1: GTTTACACAAAAATATTTACACTGCCGTTTTGGAGATTGTAAAATAT
DNA 2: ATATTTTACAATCTCCAAAAC
DNA 3: GCAGTGTAAATATTTTTGTGTAAAC
binding result [7]: binds

B6: fR-TIR26 (dsDNA)
DNA 1: TTTTTGGGCAGTGTAAATATTTTTGTGTAAAC
DNA 2: GTTTACACAAAAATATTTACACTGCCCAAAAA
binding result [8]: binds
